experiment: yeast display, Sf9 membrane polyspecificity reagent, FACS + sequencing; frameworks hold sequencing errors
Summary of the method: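 Polyreactivity labels are assigned by the sorting gate from which each nanobody was recovered. The gates were low and high (top ~1%), set on anti-HA fluorescence for expression and streptavidin fluorescence for reagent binding. Before sorting, galactose-induced (36–48 hours) yeast display cells were stained for 1 hour at 4 °C with 10% biotinylated, detergent-solubilized Sf9 membrane reagent.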

Sequence | polyreactivity (PSR sort gate)
QVQLVESGGGLVQAGGSLRLSCAASGFTFFYNAMGRYRQAPGKEREFVAAISGRGGTTYYADSVKGRFTISRDNAKNTVYLEMNSLKPEDTAVYYCAARSVSTLRYTSCKLSDDYWGQGTQVTVSS | high polyreactivity
QVQLVESGGGLVQAGGSLRLSCAASGFTFFYYAMGWYRQAPGKERELVASISWSGGSTYYADSVKGRFTISRDNAKNTVYLQMNSLKPEDTAVYYCAADVPFGGDYWGQGTQVTVSS | low polyreactivity
QVQLVESGGGLVQAGGSLRLSCAASGFTFGANAMGWYRQAPGKERELVAAITKRGGNTYYADSVKGRFTISRDNAKNTVYLQMNSLKPEDTAVYYCARDYTHGYDYWGQGTQVTVSS | high polyreactivity
QVQLVESGGGLVQAGGSLRLSCAASGFTFGANDMGWYRQAPGKERELVATISSSGGTTYYADSVKGRFTISRDNAKNTVYLQMNSLKPEDTAVYYCAAKGLFTGRVSRYADDHCGQGTQVTVSS | low polyreactivity
QVQLVESGGGLVQAGGSLRLSCAASGFTFGANVMGWYRQAPGKERQLVAGITWSGDSTYYADSVKGRFTISRDNAKNTVYLQMNSLKPEDTAVYYCAADVYDGEYILDYDYWGQGTQVTVSS | low polyreactivity
QVQLVESGGGLVQAGGSLRLSCAASGFTFGAYAMGWYRQAPGKERELVAAITWSGSSTYYADSVKGRFTISRDNAKNTVYLQMNSLKPEDTAVYYCNVQDKGYVSYYGGDSWGQGTQVTVSS | high polyreactivity
QVQLVESGGGLVQAGGSLRLSCAASGFTFGAYAMGWYRQAPGKERELVASISWSGGSTYYADSVKGRFTISRDNAKNTVYLQLNSLKPEDTAVYYCNKDFVYPDDDGLFDYWGQGTQVTVSS | low polyreactivity
QVQLVESGGGLVQAGGSLRLSCAASGFTFGDYAMGWYRQAPGIERELVAAIRSGGSTNYADSVKGRFTISRDNAKNTVYLQMNSLNPEDTAVYYCAAEWPHGQGAWSFFCRDSWGQGTQVTVSS | low polyreactivity
QVQLVESGGGLVQAGGSLRLSCAASGFTFGFYAMGWSRQATGKERELVARISYSGGSTYYADSVKGRFTISRDNAKNTVYLQMNSLKPEDTAVYYCNRGYRRLQEDYWGQGTQVTVSS | high polyreactivity
QVQLVESGGGLVQAGGSLRLSCAASGFTFGFYAMGWYRQAPGKERELVAAITSGGGTTYYADSVKGRFTISRDNAKNTVYLQMNSLKPEYTAVYYCNADPDVPFFSWLTGRGTYDYWGQGTQVTVSS | low polyreactivity
QVQLVESGGGLVQAGGSLRLSCAASGFTFGGNDMGWYRQAPGKERELVAAISWSGGSTYYADSVKGRFTISRDNAKNTVYLLMNSLKPEDTAVYYCAADYYYGKVHFDYWGQGTQVTVSS | low polyreactivity
QVQLVESGGGLVQAGGSLRLSCAASGFTFGGNVMGWYRQAPGKESELVAAITYSGGSTNYADSVKGRFTISRDNAKNTVYLQMNSLKPEDTAVYYCAAGYSYVYWSESAYVYWGQGTQVSVSS | low polyreactivity
QVQLVESGGGLVQAGGSLRLSCAASGFTFGGYAMGWYRQAPGKERELVAAISGRGGRTYYADSVKGRFTISRDNAKNTVYLQMNSLKPEDTAVYYCAAPTNHWTRLSGDYWGQGTQVTVSS | high polyreactivity
QVQLVESGGGLVQAGGSLRLSCAASGFTFGGYAMGWYRQAPGNERELVAAISKSGGRTYYADSVKGRFTISRDNAKNTVYLQMNSLKPEDTAVYYCAASTIWHYDSWGQGTQVTVSS | high polyreactivity
QVQLVESGGGLVQAGGSLRLSCAASGFTFGKYCMGWYRQAPGKERELVAAISASGGITYYADSVKGRFTISRDNAKNTVYLQMNSLKPEDTAVYYCAARRYEPKAVYYWGQGTQVTVSS | high polyreactivity
QVQLVESGGGLVQAGGSLRLSCAASGFTFGKYGMGWYRQAPGKERELVAAISASGGITYYADSVKGRFTISRDNAKNTVYLQMNSLKPEDTAVYYCAVRRRYGAFISYDYWGQGTQVTVSS | high polyreactivity
QVQLVESGGGLVQAGGSLRLSCAASGFTFGKYTMGWYRQAPGKERELVAAISRSGGSTYYADSVKGRFTISRDIAKNTVYFQMNSLKPEDTAVYYCAVDYTYDMDYWGQGTHVTVSS | high polyreactivity

Reference: the nanobody polyreactivity screen of Harvey et al. (2022)
